The target of assay [1] is human GPRC5D protein (human) (UniProt Q9NZD1). The assay can be described thus: FACS on MM.1S cells; negative control.
Assay [2] shares this target. As to the kind of experiment: FACS on RPMI-8226 cells; negative control.
For assay [3] the target is unchanged. The assay can be described thus: FACS on NCI-H929 cells; negative control.

Sequence of human GPRC5D protein (human) (Q9NZD1 whole entry): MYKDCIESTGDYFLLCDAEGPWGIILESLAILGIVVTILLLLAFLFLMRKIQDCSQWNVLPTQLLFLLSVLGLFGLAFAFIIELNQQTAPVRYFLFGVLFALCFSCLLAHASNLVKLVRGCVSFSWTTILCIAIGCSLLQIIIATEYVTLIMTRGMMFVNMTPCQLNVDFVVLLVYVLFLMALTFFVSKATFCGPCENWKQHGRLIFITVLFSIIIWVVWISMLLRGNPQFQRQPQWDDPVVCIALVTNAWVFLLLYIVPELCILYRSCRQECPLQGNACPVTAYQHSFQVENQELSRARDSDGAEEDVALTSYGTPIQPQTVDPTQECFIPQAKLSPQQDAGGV

Turning to “hIgG1 monoclonal antibody (Biointron, Cat. No. B117901)”, the Top(MFI) in assay [1] amounted to 6770 MFI; in assay [2], 3860 MFI; in assay [3], 4180 MFI.

Source of the values: patent publication EP4703384A1.
